This is an account of results in publication PMC9019090.

This test concerns the target FBXW7 (FBXW7α) (UniProt Q969H0). In words: Co-IP and reciprocal co-IP, immunoblot. Particulars: reference: Flag-ERRα wild type; sites S19,S22,S26.

As to “ERRα (from UniProt P11474) Flag-ERRα 3SA (S19A+S22A+S26A)”, the “binding against the reference” value is reported as “weaker”.
